In article PMC3484135, “A Divalent Ion Is Crucial in the Structure and Dominant-Negative Function of ID Proteins, a Class of Helix-Loop-Helix Transcription Regulators” (PLoS ONE, 2012):

Molecular target: the molecule itself
Assay: crystal structure; hanging drop vapor diffusion; protein 7 mg/ml in 50 mM Tris pH 8.0, 100 mM NaCl; precipitant 0.1 M MES pH 6.5, 2.0 M potassium acetate; 2.1Å native dataset, phased from a Se-Met SAD dataset

B1: ID2 HLH (residues 24–82) with a C-terminal 14 amino acid stabilising polypeptide (domain or fragment, human)
chain: RSKTPVDDPMSLLYNMNDCYSKLKELVPSIPQNKKVSKMEILQHVIDYILDLQIALDSHLKPSFLVQSGDIAS
notes: ID2, human, HLH domain, residues 24–82, cloned from full-length cDNA (Genecopoeia Z0585); C-terminal 14 amino acid polypeptide added to increase stability; Expressed from pDest-565 with a TEV site at the N terminus of ID2 HLH; The native crystal is called ID2-Nterm-HLH in the methods, and a Se-Met form (ID2-HLH-Se-Met) was used for phasing; also called wild type ID2; ID2 WT; source: E. coli …
Question: B1 was tested. Which “stoichiometry N” value did it give?
Answer: Its value is 2.
